# Experimental data taken from US20230357348A1 (AstraZeneca / MedImmune, published 2023).
# Starred links: 1 amine or outer side, 2 acyl side, 3 side chain; linkers in the order of their positions; H or OH if unused. Non-standard residues stand in square brackets, D forms with d. Groups on a side chain read outwards from the residue. No end group written: not given here. *: point of attachment. C20 diacid = O=C(O)CCCCCCCCCCCCCCCCCCC(=O)*; C18 diacid = O=C(O)CCCCCCCCCCCCCCCCC(=O)*; γGlu = O=C(O)[C@H](CCC(=O)[*:2])N[*:1]; αMeF = C[C@](N)(Cc1ccccc1)C(=O)O; AEEA = NCCOCCOCC(=O)O; Aib = CC(C)(N)C(=O)O
# Experiments:
# [1] = biological target: human glucagon receptor (hGCGR) (human, UniProt P47871 26-477); assay: cell-based or functional assay
# [2] = biological target: human GLP-1 receptor (hGLP-1R) (human, UniProt P43220 24-463); assay: cell-based or functional assay
# Chain of human glucagon receptor (hGCGR) (P47871 26-477): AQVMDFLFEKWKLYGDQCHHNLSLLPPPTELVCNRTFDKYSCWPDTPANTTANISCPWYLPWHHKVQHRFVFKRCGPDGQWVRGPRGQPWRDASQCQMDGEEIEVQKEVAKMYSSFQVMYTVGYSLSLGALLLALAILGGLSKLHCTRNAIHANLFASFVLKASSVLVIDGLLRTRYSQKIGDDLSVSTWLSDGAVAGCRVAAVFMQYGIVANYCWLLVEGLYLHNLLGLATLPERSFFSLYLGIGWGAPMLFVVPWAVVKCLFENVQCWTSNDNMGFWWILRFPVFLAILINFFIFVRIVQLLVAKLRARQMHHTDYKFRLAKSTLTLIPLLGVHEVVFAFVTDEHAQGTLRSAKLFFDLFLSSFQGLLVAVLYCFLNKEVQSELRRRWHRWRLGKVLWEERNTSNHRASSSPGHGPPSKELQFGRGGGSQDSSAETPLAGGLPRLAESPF
Binder,hGluc-R EC50 (pM) [1] [pM],hGLP-1R EC50 (pM) [2] [pM]
H[Aib]QGTFTSDVSK[αMeF]LESK([AEEA-AEEA-γGlu-C18 diacid])RAQDFVQWLL[Aib]E-OH (N-terminus assumed; SMILES CC(C)C[C@H](NC(=O)[C@H](Cc1c[nH]c2ccccc12)NC(=O)[C@H](CCC(N)=O)NC(=O)[C@@H](NC(=O)[C@H](Cc1ccccc1)NC(=O)[C@H](CC(=O)O)NC(=O)[C@H](CCC(N)=O)NC(=O)[C@H](C)NC(=O)[C@H](CCCNC(=N)N)NC(=O)[C@H](CCCCNC(=O)COCCOCCNC(=O)COCCOCCNC(=O)CC[C@H](NC(=O)CCCCCCCCCCCCCCCCC(=O)O)C(=O)O)NC(=O)[C@H](CO)NC(=O)[C@H](CCC(=O)O)NC(=O)[C@H](CC(C)C)NC(=O)[C@](C)(Cc1ccccc1)NC(=O)[C@H](CCCCN)NC(=O)[C@H](CO)NC(=O)[C@@H](NC(=O)[C@H](CC(=O)O)NC(=O)[C@H](CO)NC(=O)[C@@H](NC(=O)[C@H](Cc1ccccc1)NC(=O)[C@@H](NC(=O)CNC(=O)[C@H](CCC(N)=O)NC(=O)C(C)(C)NC(=O)[C@@H](N)Cc1c[nH]cn1)[C@@H](C)O)[C@@H](C)O)C(C)C)C(C)C)C(=O)N[C@@H](CC(C)C)C(=O)NC(C)(C)C(=O)N[C@@H](CCC(=O)O)C(=O)O) [Peptide 482],691,190
H[Aib]QGTFTSDVSK[αMeF]LDTK([AEEA-AEEA-γGlu-C18 diacid])RAQDFVRWLLE[Aib]K-NH2 (N-terminus assumed; SMILES CC(C)C[C@H](NC(=O)[C@H](Cc1c[nH]c2ccccc12)NC(=O)[C@H](CCCNC(=N)N)NC(=O)[C@@H](NC(=O)[C@H](Cc1ccccc1)NC(=O)[C@H](CC(=O)O)NC(=O)[C@H](CCC(N)=O)NC(=O)[C@H](C)NC(=O)[C@H](CCCNC(=N)N)NC(=O)[C@H](CCCCNC(=O)COCCOCCNC(=O)COCCOCCNC(=O)CC[C@H](NC(=O)CCCCCCCCCCCCCCCCC(=O)O)C(=O)O)NC(=O)[C@@H](NC(=O)[C@H](CC(=O)O)NC(=O)[C@H](CC(C)C)NC(=O)[C@](C)(Cc1ccccc1)NC(=O)[C@H](CCCCN)NC(=O)[C@H](CO)NC(=O)[C@@H](NC(=O)[C@H](CC(=O)O)NC(=O)[C@H](CO)NC(=O)[C@@H](NC(=O)[C@H](Cc1ccccc1)NC(=O)[C@@H](NC(=O)CNC(=O)[C@H](CCC(N)=O)NC(=O)C(C)(C)NC(=O)[C@@H](N)Cc1c[nH]cn1)[C@@H](C)O)[C@@H](C)O)C(C)C)[C@@H](C)O)C(C)C)C(=O)N[C@@H](CC(C)C)C(=O)N[C@@H](CCC(=O)O)C(=O)NC(C)(C)C(=O)N[C@@H](CCCCN)C(N)=O) [Peptide 478],190,9.18
H[Aib]QGTFTSDVSK[αMeF]LDTK([AEEA-AEEA-γGlu-C18 diacid])RARDFVQWLLE[Aib]K-NH2 (N-terminus assumed; SMILES CC(C)C[C@H](NC(=O)[C@H](Cc1c[nH]c2ccccc12)NC(=O)[C@H](CCC(N)=O)NC(=O)[C@@H](NC(=O)[C@H](Cc1ccccc1)NC(=O)[C@H](CC(=O)O)NC(=O)[C@H](CCCNC(=N)N)NC(=O)[C@H](C)NC(=O)[C@H](CCCNC(=N)N)NC(=O)[C@H](CCCCNC(=O)COCCOCCNC(=O)COCCOCCNC(=O)CC[C@H](NC(=O)CCCCCCCCCCCCCCCCC(=O)O)C(=O)O)NC(=O)[C@@H](NC(=O)[C@H](CC(=O)O)NC(=O)[C@H](CC(C)C)NC(=O)[C@](C)(Cc1ccccc1)NC(=O)[C@H](CCCCN)NC(=O)[C@H](CO)NC(=O)[C@@H](NC(=O)[C@H](CC(=O)O)NC(=O)[C@H](CO)NC(=O)[C@@H](NC(=O)[C@H](Cc1ccccc1)NC(=O)[C@@H](NC(=O)CNC(=O)[C@H](CCC(N)=O)NC(=O)C(C)(C)NC(=O)[C@@H](N)Cc1c[nH]cn1)[C@@H](C)O)[C@@H](C)O)C(C)C)[C@@H](C)O)C(C)C)C(=O)N[C@@H](CC(C)C)C(=O)N[C@@H](CCC(=O)O)C(=O)NC(C)(C)C(=O)N[C@@H](CCCCN)C(N)=O) [Peptide 480],136,12.6
H[Aib]QGTFTSDVSK[αMeF]LDTK([AEEA-AEEA-γGlu-C18 diacid])RAQDFVQWLL[Aib]E-OH [Peptide 483],169,178
H[Aib]QGTFTSDVSK[αMeF]LDTK([AEEA-AEEA-γGlu-C20 diacid])RAQDFVRWLLE[Aib]K-NH2 (N-terminus assumed; SMILES CC(C)C[C@H](NC(=O)[C@H](Cc1c[nH]c2ccccc12)NC(=O)[C@H](CCCNC(=N)N)NC(=O)[C@@H](NC(=O)[C@H](Cc1ccccc1)NC(=O)[C@H](CC(=O)O)NC(=O)[C@H](CCC(N)=O)NC(=O)[C@H](C)NC(=O)[C@H](CCCNC(=N)N)NC(=O)[C@H](CCCCNC(=O)COCCOCCNC(=O)COCCOCCNC(=O)CC[C@H](NC(=O)CCCCCCCCCCCCCCCCCCC(=O)O)C(=O)O)NC(=O)[C@@H](NC(=O)[C@H](CC(=O)O)NC(=O)[C@H](CC(C)C)NC(=O)[C@](C)(Cc1ccccc1)NC(=O)[C@H](CCCCN)NC(=O)[C@H](CO)NC(=O)[C@@H](NC(=O)[C@H](CC(=O)O)NC(=O)[C@H](CO)NC(=O)[C@@H](NC(=O)[C@H](Cc1ccccc1)NC(=O)[C@@H](NC(=O)CNC(=O)[C@H](CCC(N)=O)NC(=O)C(C)(C)NC(=O)[C@@H](N)Cc1c[nH]cn1)[C@@H](C)O)[C@@H](C)O)C(C)C)[C@@H](C)O)C(C)C)C(=O)N[C@@H](CC(C)C)C(=O)N[C@@H](CCC(=O)O)C(=O)NC(C)(C)C(=O)N[C@@H](CCCCN)C(N)=O) [Peptide 479],207,34.2
H[Aib]QGTFTSDVSK[αMeF]LDTK([AEEA-AEEA-γGlu-C20 diacid])RAQDFVRWLLA[Aib]G-NH2 (N-terminus assumed; SMILES CC(C)C[C@H](NC(=O)[C@H](CC(C)C)NC(=O)[C@H](Cc1c[nH]c2ccccc12)NC(=O)[C@H](CCCNC(=N)N)NC(=O)[C@@H](NC(=O)[C@H](Cc1ccccc1)NC(=O)[C@H](CC(=O)O)NC(=O)[C@H](CCC(N)=O)NC(=O)[C@H](C)NC(=O)[C@H](CCCNC(=N)N)NC(=O)[C@H](CCCCNC(=O)COCCOCCNC(=O)COCCOCCNC(=O)CC[C@H](NC(=O)CCCCCCCCCCCCCCCCCCC(=O)O)C(=O)O)NC(=O)[C@@H](NC(=O)[C@H](CC(=O)O)NC(=O)[C@H](CC(C)C)NC(=O)[C@](C)(Cc1ccccc1)NC(=O)[C@H](CCCCN)NC(=O)[C@H](CO)NC(=O)[C@@H](NC(=O)[C@H](CC(=O)O)NC(=O)[C@H](CO)NC(=O)[C@@H](NC(=O)[C@H](Cc1ccccc1)NC(=O)[C@@H](NC(=O)CNC(=O)[C@H](CCC(N)=O)NC(=O)C(C)(C)NC(=O)[C@@H](N)Cc1c[nH]cn1)[C@@H](C)O)[C@@H](C)O)C(C)C)[C@@H](C)O)C(C)C)C(=O)N[C@@H](C)C(=O)NC(C)(C)C(=O)NCC(N)=O) [Peptide 477],117,54.1
H[Aib]QGTFTSDVSK[αMeF]LDTK([AEEA-AEEA-γGlu-C20 diacid])RAQDFVQWLL[Aib]E-OH (N-terminus assumed; SMILES CC(C)C[C@H](NC(=O)[C@H](Cc1c[nH]c2ccccc12)NC(=O)[C@H](CCC(N)=O)NC(=O)[C@@H](NC(=O)[C@H](Cc1ccccc1)NC(=O)[C@H](CC(=O)O)NC(=O)[C@H](CCC(N)=O)NC(=O)[C@H](C)NC(=O)[C@H](CCCNC(=N)N)NC(=O)[C@H](CCCCNC(=O)COCCOCCNC(=O)COCCOCCNC(=O)CC[C@H](NC(=O)CCCCCCCCCCCCCCCCCCC(=O)O)C(=O)O)NC(=O)[C@@H](NC(=O)[C@H](CC(=O)O)NC(=O)[C@H](CC(C)C)NC(=O)[C@](C)(Cc1ccccc1)NC(=O)[C@H](CCCCN)NC(=O)[C@H](CO)NC(=O)[C@@H](NC(=O)[C@H](CC(=O)O)NC(=O)[C@H](CO)NC(=O)[C@@H](NC(=O)[C@H](Cc1ccccc1)NC(=O)[C@@H](NC(=O)CNC(=O)[C@H](CCC(N)=O)NC(=O)C(C)(C)NC(=O)[C@@H](N)Cc1c[nH]cn1)[C@@H](C)O)[C@@H](C)O)C(C)C)[C@@H](C)O)C(C)C)C(=O)N[C@@H](CC(C)C)C(=O)NC(C)(C)C(=O)N[C@@H](CCC(=O)O)C(=O)O) [Peptide 484],169,339
H[Aib]QGTFTSDVSK[αMeF]LDTK([AEEA-AEEA-γGlu-C20 diacid])RARDFVQWLLE[Aib]K-NH2 (N-terminus assumed; SMILES CC(C)C[C@H](NC(=O)[C@H](Cc1c[nH]c2ccccc12)NC(=O)[C@H](CCC(N)=O)NC(=O)[C@@H](NC(=O)[C@H](Cc1ccccc1)NC(=O)[C@H](CC(=O)O)NC(=O)[C@H](CCCNC(=N)N)NC(=O)[C@H](C)NC(=O)[C@H](CCCNC(=N)N)NC(=O)[C@H](CCCCNC(=O)COCCOCCNC(=O)COCCOCCNC(=O)CC[C@H](NC(=O)CCCCCCCCCCCCCCCCCCC(=O)O)C(=O)O)NC(=O)[C@@H](NC(=O)[C@H](CC(=O)O)NC(=O)[C@H](CC(C)C)NC(=O)[C@](C)(Cc1ccccc1)NC(=O)[C@H](CCCCN)NC(=O)[C@H](CO)NC(=O)[C@@H](NC(=O)[C@H](CC(=O)O)NC(=O)[C@H](CO)NC(=O)[C@@H](NC(=O)[C@H](Cc1ccccc1)NC(=O)[C@@H](NC(=O)CNC(=O)[C@H](CCC(N)=O)NC(=O)C(C)(C)NC(=O)[C@@H](N)Cc1c[nH]cn1)[C@@H](C)O)[C@@H](C)O)C(C)C)[C@@H](C)O)C(C)C)C(=O)N[C@@H](CC(C)C)C(=O)N[C@@H](CCC(=O)O)C(=O)NC(C)(C)C(=O)N[C@@H](CCCCN)C(N)=O) [Peptide 481],350,52.2
